# Data published in article PMC3741392, “The Tip of the Tail Needle Affects the Rate of DNA Delivery by Bacteriophage P22” (PLoS ONE, 2013).
# Target: the molecule itself
# Test: crystal structure; hanging drop vapor diffusion, 26% PEG 3350, 50 mM Tris-HCl pH 8.0; space group P212121; one trimer in the asymmetric unit; 1.1 Å
protein,measurement,value
bacteriophage HS1 tail needle knob (domain or fragment) RISALEYATTRKKSEVVYSGVSVTIPTAPTNLVSLLKTLTPSSGTLAPFFDTVNNKMVVFNENKTLFFKLSIVGTWPSGTANRSMQLTFSGSVPDTLVSSRNSATTTDNILLATFFSVDKDGFLATNGSTLTIQSNGAAFTATTIKIIAEQ,stoichiometry N,3
